Data reported in IntAct's records for PubMed 23213219.

B1: UL37 immediate early glycoprotein (Human cytomegalovirus (strain AD169) (HHV-5)), P16778 (parent)
chain: MSPVYVNLLGSVGLLAFWYFSYRWIQRKRLEDPLPPWLRKKKACALTRRSRHRLRRQHGVIDGENSETERSVDLVAALLAEAGEESVTEDTEREDTEEEREDEEEENEARTPEVNPIDAEGLSGLAREACEALKKALRRHRFLWQRRQRARMLQHNGPQQSHHAAVFCRVHGLRGFQVSVWLLLTLLWSTGHGVSVRCTYHGTDVNRTSNTTSMNCHLNCTRNHTQIYNGPCLGTEARLPLNVTFNQSRRKWHSVMLKFGFQYHLEGWFPLRVLNESREINVTEVHGEVACFRNDTNVTVGQLTLNFTGHSYVLRAIAHTSPFESYVRWEETNVTDNATSSENTTTVMSTLTKYAESDYIFLQDMCPRFLKRTVKLTRNKTKHNVTVTGNNMTTLPVWTPECKGWTYWTTLSVMWRNRRSALLRAKSRALGHWALLSICTVAAGSIALLSLFCILLIGLRRDLLEDFRYICRDEGSSSTKNDVHRIV

Variants of: B1
Settings: with bax_human BAX

Variant | effect of a mutation on the interaction
MSPVYVNLLGSVGLLAFWYFSYRWIQRKRLEDPLPPWLRKKKACALTRRSRHRLRRQHGVIDGENSETERSVDLVAALLAEAGEESVTEDTEREDTEEEREDEEEENEARTPEVNPIDAEGLSGLAREACEALKKALRRHRFLWQERQRARMLQHNGPQQSHHAAVFCRVHGLRGFQVSVWLLLTLLWSTGHGVSVRCTYHGTDVNRTSNTTSMNCHLNCTRNHTQIYNGPCLGTEARLPLNVTFNQSRRKWHSVMLKFGFQYHLEGWFPLRVLNESREINVTEVHGEVACFRNDTNVTVGQLTLNFTGHSYVLRAIAHTSPFESYVRWEETNVTDNATSSENTTTVMSTLTKYAESDYIFLQDMCPRFLKRTVKLTRNKTKHNVTVTGNNMTTLPVWTPECKGWTYWTTLSVMWRNRRSALLRAKSRALGHWALLSICTVAAGSIALLSLFCILLIGLRRDLLEDFRYICRDEGSSSTKNDVHRIV [R146E] | decreasing interaction strength
MSPVYVNLLGSVGLLAFWYFSYRWIQRKRLEDPLPPWLRKKKACALTRRSRHRLRRQHGVIDGENSETERSVDLVAALLAEAGEESVTEDTEREDTEEEREDEEEENEARTPEVNPIDAEGLSGLAREACEALKKALRRHRFAWQRRQRARMLQHNGPQQSHHAAVFCRVHGLRGFQVSVWLLLTLLWSTGHGVSVRCTYHGTDVNRTSNTTSMNCHLNCTRNHTQIYNGPCLGTEARLPLNVTFNQSRRKWHSVMLKFGFQYHLEGWFPLRVLNESREINVTEVHGEVACFRNDTNVTVGQLTLNFTGHSYVLRAIAHTSPFESYVRWEETNVTDNATSSENTTTVMSTLTKYAESDYIFLQDMCPRFLKRTVKLTRNKTKHNVTVTGNNMTTLPVWTPECKGWTYWTTLSVMWRNRRSALLRAKSRALGHWALLSICTVAAGSIALLSLFCILLIGLRRDLLEDFRYICRDEGSSSTKNDVHRIV [L143A] | decreasing interaction strength
MSPVYVNLLGSVGLLAFWYFSYRWIQRKRLEDPLPPWLRKKKACALTRRSRHRLRRQHGVIDGENSETERSVDLVAALLAEAGEESVTEDTEREDTEEEREDEEEENEARTPEVNPIDAEGLSGLAREACEALKKALREHRFLWQRRQRARMLQHNGPQQSHHAAVFCRVHGLRGFQVSVWLLLTLLWSTGHGVSVRCTYHGTDVNRTSNTTSMNCHLNCTRNHTQIYNGPCLGTEARLPLNVTFNQSRRKWHSVMLKFGFQYHLEGWFPLRVLNESREINVTEVHGEVACFRNDTNVTVGQLTLNFTGHSYVLRAIAHTSPFESYVRWEETNVTDNATSSENTTTVMSTLTKYAESDYIFLQDMCPRFLKRTVKLTRNKTKHNVTVTGNNMTTLPVWTPECKGWTYWTTLSVMWRNRRSALLRAKSRALGHWALLSICTVAAGSIALLSLFCILLIGLRRDLLEDFRYICRDEGSSSTKNDVHRIV [R139E] | decreasing interaction strength
